Measured values from the supplement of paper PMC9170038.

Test system: MS2 coat protein
Experiment: apparent KD of MS2 coat protein; higher = weaker reporter binding
Details: Eterna round: R107
Outline: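 For every design, apparent KD is the median of normalised binding-curve fits from its clusters. The RNA switches were transcribed on-chip from Illumina sequencing clusters and titrated with SNAP-549-labelled MS2 coat protein (twofold steps, 0.7 or 1.5 nM to 3 µM; 0.8–1.5 h to 10–20 min per step). Titrations used 100 mM Tris-HCl pH 7.5, 80 mM KCl, 4 mM MgCl2, without or with constant ligand.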

[1] = input ligand: theophylline 20 uM
[2] = input ligand: theophylline 2 mM
[3] = input ligand: tryptophan 2.4 mM

Row | Sequence | apparent KD of MS2 coat protein (input ligand: arginine 13.2 mM) [nM] | apparent KD of MS2 coat protein (input ligand: none) [nM] | apparent KD of MS2 coat protein [1] [nM] | apparent KD of MS2 coat protein [2] [nM] | apparent KD of MS2 coat protein [3] [nM]
1 | UAACAUGAGGAUCACCCAUGUUUGGAGAAACGAGGACCGGUACGGCCGCCACUCGAGGAGUGGAUGAGAAGUGGGAUAGAGUGAU [Same State Trp A GF6] | 19.2 | 19.6 | 19.6 | 17.5 | 15.1
2 | UACAUAUGCCGAAGGAGCGCGAGAUGCAAAGCAUCAUUCCUCACAUGAGGAUCACCCAUGUCGCAGGUAGGUCGCGGCAUAUGUU [ArgBX] | 46.7 | 32.5 | 45.1 | 40.3 | 32.4
3 | UACCGAUACGGAAGGAGCGUAGAAGUAGUACAUGAGGAUCACCCAUGUAUGGGUAAUUUCGUACAGGUAGGUCGCCGUAUCGGUA [SSAB NP+V+V2 #23] | 23.3 | 31.8 | 38.3 | 40 | 35.5
4 | UACCGAUGAAGAAGGAGCGUAUGCUUAUAUGAUGGUAACAUGAGGAUCACCCAUGUCAGUAUACAGGUAGGUCGCUUCAUCGGUA [EAB NP+V+V2 #22] | 45.3 | 59.1 | 68.6 | 73.3 | 45.8
5 | UACGCUAGGGCGGCCGCCACUCGGACAUGAGGAUCACCCAUGUCGAUUAAUUGAAGGACAUGAAUGAGGACCGGGCUAAGCUAGG [Same State - Tryptophan B / B] | 20.8 | 29.4 | 38.9 | 27.1 | 23.4
6 | UACUUGCUGACGGCCGCCACUAGAACAUGAGGAUCACCCAUGUAGGUCCUAGAUUCCUCAUGAACUAGGACCGGGUCAGCAAGAU [(Trp1)-(Ms2)-(T)'-(M)'-(Trp2)_Design15] | 53.7 | – | 201 | 221 | –
7 | UACUUGCUGACGGCCGCCACUAGAACAUGAGGAUCACCCAUGUAUUCUAGUCGUCAUGGGUGGACUAGGACCGGGUCAGCAAGAU [(Trp1)-(Ms2)-(T)'-(M)'-(Trp2)_Design8] | 30.7 | 33.8 | 41.8 | 34.7 | 192
8 | UAUAACAUGAGGAUCACCCAUGUAAGUGAUACCAGAUAAAUAAUAGUCCCUUGGCAGCAUAUUGGGAAAAUGUAUAAUAUAUAUU [Same State - Theophylline A (Freestyle 1)] | 49.9 | – | 72.1 | – | 49.4
9 | UAUAGUGUGAUGGAUACCAGCAGAGAAAACGUUUAUCCUAACAUGAGGAUCACCCAUGUAUGCCCUUGGCAGCUGUUGUGUUAUA [8.O] | 28.9 | – | 42.5 | – | 30.3
10 | UAUAUAUAUCACUAACUGUUCUUGAGGUCUCGAGGACCGGUACGGCCGCCACUCGUGCCGCCUCACAUGAGGAUCACCCAUGUCC [XTryp A #2] | 55.3 | – | 79.4 | 81.6 | –
11 | UAUAUGGUGAUGGAUACCAGCAGAGAAAACGUUUAUCCUAACAUGAGGAUCACCCAUGUAUGCCCUUGGCAGCUGUUGUUAUAUA [8.M] | 26.7 | – | 42.3 | – | 35.2
12 | UAUCGCGCGGCGGCCGCCACUAAUGGCAGAUCUGUCGACUAACAUGAGGAUCACCCAUGUCUAACUAGGACCGGGCCCAAGUUGU [theeternabot_sameState_MS2_Trp_B_7] | 30.5 | – | 66.2 | 59 | –
13 | UCAUAAGUACCGGUCCUCAGAUCCUCAUGACGAGGACCGGUACGGCCGCCACUCGAAACAUGAGGAUCACCCAUGUAAUAAUACU [Brourdmod15] | 22.5 | – | 37.9 | 31.9 | –
14 | UCAUGCAGGUCGGCCGCCACUACACACAUGAGGAUCACCCAUGUAGUUACUGGGUGAAGUGGCAGUAGGACCGGGACCUGCAUAU [Brourdmod08] | 155 | 423 | 664 | 696 | 559
15 | UCGACGAUGACCAAAGGUCAGGAGUACGUACGAGGACCGGUACGGCCGCCACUCGAGGAGUGGGACAUGAGGAUCACCCAUGUGG [#20 Exclusion Tryptophan A] | 16.6 | 38.2 | 51.4 | 43.7 | 37.4
16 | UCGCUCUGGGUGGGAUCCGGAGAUGUGGAAGGAGCGCUGGAAACAGCAGGUAGGUCGCCAACGGACAUGAGGAUCACCCAUGUAC [Same State - Arginine A (Freestyle 18)] | 64.9 | 26.5 | 37.4 | 37.7 | 59
17 | UCGGGCAGAGCGGCCGCCACUGUUUGGCGUGCGGAUGAAGGAACAUGAGGAUCACCCAUGUAGAUUAGGACCGGGCUUGCGGAGA [ddrmullin] | 8.61 | 13.8 | 18.1 | 15 | 15.9
